This is an account of results in patent publication US6429014B1, “Monoterpene synthases from grand fir (Abies grandis)” (Washington State University Research Foundation, priority 1997, dated 2002).

Data set [1] can be described thus: Terpene synthase assay and GC-MS / chiral GC product identification of recombinant enzymes expressed from pSBET in E. coli BL21(DE3) (Example 11). It counts as biochemical. The note with it: extracts of induced cells. On the procedure: For functional expression, bacterial strains E. coli BL21(DE3)/pSAG2(M), E. coli BL21(DE3)/pSAG2(R), E. coli BL21(DE3)/pSAG3(R), E. coli BL21(DE3)/pSAG6(M), E. coli BL21(DE3/pSAG6(R), E. coli BL21(DE3)/pSAG8(M), E. coli BL21(DE3)/pSAG9(M), E. coli BL21(DE3)/pSAG11(M) and E. coli BL21(DE3)/SAG11(R) were grown to A600=0.5 at 37° C. in 5 ml of Luria-Bertani medium (Sambrook, J., Fritsch, E. F., and Maniatis, T. (1989) Molecular Cloning: A Laboratory Manual, 2nd Ed., pp. 7.20-7.43, Cold Spring Harbor, N.Y.) supplemented with 30 μg kanamycin/ml. Cultures were then induced by addition of 1 mM isopropyl-1-thio-β-D-galactopyranoside and grown for another 12 h at 20° C. Cells were harvested by centrifugation and disrupted by sonication followed by centrifugation, and the resulting soluble enzyme preparations were assayed for monoterpene, sesquiterpene and diterpene synthase activity using the appropriate radiolabeled substrate as described previously (Bohlmann, J., Steele, C. L., and Croteau, R. (1997) J. Biol. Chem. 272, 21784-21792). This assay involves the isolation and separation of terpene olefins and oxygenated terpenes by column chromatography on silica, followed by scintillation counting to determine conversion rate. GC-MS analysis is employed for product identification, by comparison of retention times and mass spectra to those of authentic standards (Bohlmann, J., Steele, C. L., and Croteau, R. (1997) J. Biol Chem. 272, 21784-21792); assignment of absolute configuration is based upon chiral column capillary GC and matching of retention time to that of the corresponding enantiomer (Lewinsohn, E., Savage, T. J., Gijzen, M., and Croteau, R. (1993) Phytochem. Anal. 4, 220-225). To insure production of sufficient material for identification, the standard assay (Bohlmann, J., Steele, C. L., and Croteau, R. (1997) J. Biol. Chem. 272, 21784-21792) was scaled up by a factor of 20.
Initially, the four pSBET plasmids pSAG6(M), pSAG8(M), pSAG9(M) and pSAG11(M), containing the full-length cDNA inserts of ag6 (SEQ ID NO:64), ag8 (SEQ ID NO:66), ag9 (SEQ ID NO:77) and ag11 (SEQ ID NO:68), respectively, were expressed in E. coli BL21(DE3). Extracts of the induced, transformed bacterial cells were assayed for monoterpene, sesquiterpene and diterpene synthase activity using the corresponding labeled C10, C15 and C20 prenyl diphosphate substrates (Bohlmann, J., Steele, C. L., and Croteau, R. (1997) J. Biol. Chem. 272, 21784-21792). […] Since it is known that the relatively large amino-terminal transit peptide of plant terpene synthases can impair expression of the functional preprotein in E. coli and promote the formation of intractable inclusion bodies (Williams, D. C., McGarvey, D. J., Katahira, E. J., and Croteau, R. (1998) Biochemisiry 37, 12213-12220), the“pseudomature” forms of ag6 (SEQ ID NO:64) and ag11 (SEQ ID NO:68) were prepared by truncation of the cDNAs to insert a starting methionine immediately upstream of their tandem arginine elements (R59R 60 for ag6 (SEQ ID NO:64), R^71R^72 for ag11 (SEQ ID NO:68)) for expression in E. coli BL21(DE3)/pSAG6(R) and E. coli BL21(DE3)/pSAG11(R). Similar truncations of previously characterized ag2.2 (SEQ ID NO:1) (myrcene synthase, R^64R^65) and ag3.18 (SEQ ID NO:3) ((−)-pinene synthase, (SEQ ID NO:5) R^64R^65) (Bohlmann, J., Steele, C. L., and Croteau, R. (1997) J. Biol. Chem. 272, 21784-21792) were prepared for expression from pSBET as controls for the possible alteration of product yield and distribution resulting from truncation.
Monoterpenes generated at preparative scale from geranyl diphosphate by the recombinant enzymes encoded by ag6 (SEQ ID NO:64), ag8 (SEQ ID NO:66), ag9 (SEQ ID NO:77) and ag11 (SEQ ID NO:68) were analyzed by GC-MS and chiral phase (β-cyclodextrin) capillary GC, and identified by comparison of retention times and mass spectra to authentic standards (FIGS. 6-9). […] The enzyme encoded by ag6 (SEQ ID NO:65) is therefore designated as (−)-1S,4R-camphene synthase. […]

For data set [2] the following is noted: Bohlmann et al. 1997; cited from earlier work.

B1: AG3.18: recombinant (−)-pinene synthase from Grand fir encoded by cDNA clone AG3.18 (SEQ ID NO:3; protein SEQ ID NO:4) (protein, listed as Abies grandis)
chain: MALVSTAPLASKSCLHKSLISSTHELKALSRTIPALGMSRRGKSITPSISMSSTTVVTDDGVRRRMGDFHSNLWDDDVIQSLPTAYEEKSYLERAEKLIGEVKNMFNSMSLEDGELMSPLNDLIQRLWIVDSLERLGIHRHFKDEIKSALDYVYSYWGENGIGCGRESVVTDLNSTALGLRTLRLHGYPVSSDVFKAFKGQNGQFSCSENIQTDEEIRGVLNLFRASLIAFPGEKIMDEAEIFSTKYLKEALQKIPVSSLSREIGDVLEYGWHTYLPRLEARNYIQVFGQDTENTKSYVKSKKLLELAKLEFNIFQSLQKRELESLVRWWKESGFPEMTFCRHRHVEYYTLASCIAFEPQHSGFRLGFAKTCHLITVLDDMYDTFGTVDELELFTATMKRWDPSSIDCLPEYMKGVYIAVYDTVNEMAREAEEAQGRDTLTYAREAWEAYIDSYMQEARWIATGYLPSFDEYYENGKVSCGHRISALQPILTMDIPFPDHILKEVDFPSKLNDLACAILRLRGDTRCYKADRARGEEASSISCYMKDNPGVSEEDALDHINAMISDVIKGLNWELLKPDINVPISAKKHAFDIARAFHYGYKYRDGYSVANVETKSLVTRTLLESVPL
B1: in data set [1], the “terpene synthase activity on expression from pSBET in E. coli BL21(DE3)” value is “high level expression of activity”. Besides, the “(−)-enantiomer share of the α-pinene formed” value in data set [2] is listed as “more than 99%”.
